Source: IntAct's records for PubMed 23911326

B1: Metabotropic glutamate receptor 5 (Mus musculus), Q3UVX5 (parent)
chain: MVLLLILSVLLLKEDVRGSAQSSERRVVAHMPGDIIIGALFSVHHQPTVDKVHERKCGAVREQYGIQRVEAMLHTLERINSDPTLLPNITLGCEIRDSCWHSAVALEQSIEFIRDSLISSEEEEGLVRCVDGSSSFRSKKPIVGVIGPGSSSVAIQVQNLLQLFNIPQIAYSATSMDLSDKTLFKYFMRVVPSDAQQARAMVDIVKRYNWTYVSAVHTEGNYGESGMEAFKDMSAKEGICIAHSYKIYSNAGEQSFDKLLKKLRSHLPKARVVACFCEGMTVRGLLMAMRRLGLAGEFLLLGSDGWADRYDVTDGYQREAVGGITIKLQSPDVKWFDDYYLKLRPETNLRNPWFQEFWQHRFQCRLEGFAQENSKYNKTCNSSLTLRTHHVQDSKMGFVINAIYSMAYGLHNMQMSLCPGYAGLCDAMKPIDGRKLLDSLMKTNFTGVSGDMILFDENGDSPGRYEIMNFKEMGKDYFDYINVGSWDNGELKMDDDEVWSKKNNIIRSVCSEPCEKGQIKVIRKGEVSCCWTCTPCKENEYVFDEYTCKACQLGSWPTDDLTGCDLIPVQYLRWGDPEPIAAVVFACLGLLATLFVTVIFIIYRDTPVVKSSSRELCYIILAGICLGYLCTFCLIAKPKQIYCYLQRIGIGLSPAMSYSALVTKTNRIARILAGSKKKICTKKPRFMSACAQLVIAFILICIQLGIIVALFIMEPPDIMHDYPSIREVYLICNTTNLGVVTPLGYNGLLILSCTFYAFKTRNVPANFNEAKYIAFTMYTTCIIWLAFVPIYFGSNYKIITMCFSVSLSATVALGCMFVPKVYIILAKPERNVRSAFTTSTVVRMHVGDGKSSSAASRSSSLVNLWKRRGSSGETLRYKDRRLAQHKSEIECFTPKGSMGNGGRATMSSSNGKSVTWAQNEKSTRGQHLWQRLSVHINKKENPNQTAVIKPFPKSTESRGQGAGAGGGSGPGAAGAGSAGCTATGGPEPPDAGPKALYDVAEAEERFPAAARPRSPSPISTLSHLAGSAGRTDDDAPSLHSETAARSSSSQGSLMEQISSVVTRFTANITELNSMMLSTAAAPGPPGTPICSSYLIPKEIQLPTTMTTFAEIQPLPAIEVTGGAQPATGPSPAQETPAGAEAAPGKPDLEELVALTPPSPFRDSVDSGSTTPNSPVSESALCIPSSPKYDTLIIRDYTQSSSSL
partner: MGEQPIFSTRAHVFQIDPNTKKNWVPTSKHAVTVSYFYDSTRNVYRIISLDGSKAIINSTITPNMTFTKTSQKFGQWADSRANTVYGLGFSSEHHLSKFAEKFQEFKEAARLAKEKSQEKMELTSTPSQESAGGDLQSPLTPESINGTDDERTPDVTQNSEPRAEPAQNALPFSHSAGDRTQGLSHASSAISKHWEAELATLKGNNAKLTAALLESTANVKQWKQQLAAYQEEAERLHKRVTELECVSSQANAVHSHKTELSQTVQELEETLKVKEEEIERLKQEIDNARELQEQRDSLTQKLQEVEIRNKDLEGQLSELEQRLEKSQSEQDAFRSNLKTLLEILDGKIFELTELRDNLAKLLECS

Variants of: B1
Conditions: with Homer1, Q9Z214-1

Row | Variant | effect of a mutation on the interaction
1 | F1160R | disrupting interaction strength
